# Results from US20060020109A1 (Harvard, published 2006).
# T1: soluble recombinant HLA-DR2 molecules (MHC class II HLA-DR2 protein) (human)
# T1 chain 1: not shown
# T1 chain 2: not shown
# What was measured:
# [1] = target: soluble recombinant HLA-DR2 molecules (MHC class II HLA-DR2 protein) (human); experiment: competition ELISA on soluble HLA-DR2; competitor biotinylated MBP 85-99 (0.13 µM)
# [2] = target: soluble recombinant HLA-DR2 molecules (MHC class II HLA-DR2 protein) (human); experiment: competition ELISA on soluble HLA-DR2; competitor biotinylated Cop 1 (1.5 µM)
# [3] = target: HLA-DR2 (DRB1*1501) on antigen presenting cells (MGAR, L466) (human); experiment: cell-based or functional assay
# [4] = target: T2, soluble recombinant HLA-DR2 molecules (MHC class II HLA-DR2 protein) (human); experiment: competition ELISA on soluble HLA-DR2; competitor biotinylated Cop 1 (1.5 µM)
# T2 construct: Soluble, empty protein from Drosophila S2 cells, captured on plates by antibody LB3.1; also called MHC class II DR2 protein; recombinant HLA-DR2 protein
# [5] = target: T2, soluble recombinant HLA-DR2 molecules …; experiment: competition ELISA on soluble HLA-DR2; competitor biotinylated MBP 85-99 (0.13 µM)
# [6] = target: T1, soluble recombinant HLA-DR2 molecules …; experiment: competition ELISA on soluble HLA-DR2; competitor biotinylated Cop 1 (1.5 µM); settings: remark: other sources report otherwise
Molecule,IC50 [1],IC50 [2],"Inhibition of IL-2 production (%), Hy1B [3]",IC50 [4],IC50 [5],IC50 [6]
"Cop 1 (Copolymer 1; poly(Y,E,A,K); Copaxone), unlabeled",100 µM,7 µM,,,,
AKAAYEAYAAAAAAA [synthetic peptide #64],,,18%,> 1000 µM,,
AEEAYKAYAAAAAAA [synthetic peptide #53],,,13%,> 150 µM,150 µM,
EEAAYKAAKAAAAAA [synthetic peptide #111],,,,< 1 µM,> 1000 µM,
EEKAYAYAKAAAAAA [synthetic peptide #106],,,39%,100 µM,> 1000 µM,
AKKAAEAYAAAAAAA [synthetic peptide #50],,,22%,40 µM,10 µM,
KEEYAAAAAAAAAAA [synthetic peptide #42],,,49%,> 1000 µM,,
AKKEYAEYKAAAAAA [synthetic peptide #103],,,49%,< 1 µM,> 150 µM,
AEKAYAAAAAAAAAA [synthetic peptide #43],,,0%,,,> 1000 µM
AAEKYAEYKAAAAAA [synthetic peptide #104],,,53%,20 µM,> 150 µM,
EKAKYEAYKAAAAAA [synthetic peptide #101],,,53%,< 1 µM,3 µM,
AEKAYAAYAAAAAAA [synthetic peptide #52],,,20%,> 150 µM,150 µM,
EAAKYEAYKAAAAAA [synthetic peptide #100],,,56%,2 µM,> 150 µM,
AAEAYKAYKAAAAAA [synthetic peptide #94],,,50%,> 150 µM,3 µM,
EAEAYKAYKAAAAAA [synthetic peptide #96],,,43%,> 1000 µM,6 µM,
EAKAYEAYKAAAAAA [synthetic peptide #95],,,47%,> 1000 µM,40 µM,
EAAAYKAYKAAAAAA [synthetic peptide #99],,,57%,> 150 µM,5 µM,
EAKKYEAYKAAAAAA [synthetic peptide #102],,,57%,2 µM,20 µM,
AAKAYEAYKAAAAAA [synthetic peptide #93],,,48%,> 150 µM,8 µM,
AKEAAAAYAAAAAAA [synthetic peptide #45],,,0%,> 150 µM,95 µM,
EEAAYKAAKAAAAAA [synthetic peptide #108],,,,2 µM,> 1000 µM,
EEAAYAYKKAAAAAA [synthetic peptide #112],,,32%,15 µM,> 1000 µM,
EAKAYEYAKAAAAAA [synthetic peptide #113],,,30%,< 1 µM,> 1000 µM,
ENPVVHYFKNIVTPR (Analog of MBP 85-99 with F to Y at the position of MBP residue 91) [synthetic peptide #107],,,64%,40 µM,< 1 µM,
